Laboratory results from patent JP2010254663A.
Read-outs that look alike come from different tables or passages of the source.

Experiments:
[1] = target: HAMA血清タイプ1(Roche製、品番:1767275); assay: forward sandwich ELISA with anti-hCEA antibodies and HAMA serum type 1, inhibitor at 1 ug/ml
[2] = target: HAMA血清タイプ1(Roche製、品番:1767275); assay: as above; remark: listed apart in the source

HAMA抑制率 [1] | HAMA抑制率 [2] | Substance
61% | 39% | マウスIgG(CHEMICON製、品番:PP54) (antibody)
68% |  | Heterophilic Blocking Reagent1(SCANTIBODIES LABORATORY，INC.製、品番:3KC534−075)
69% | 51% | MAK33−IgG1(Roche製、品番:1200941) (antibody)
